In the nanobody polyreactivity screen of Harvey et al. (2022):

Assay: yeast display, Sf9 membrane polyspecificity reagent, FACS + sequencing; frameworks hold sequencing errors
Method in brief: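 Galactose-induced (36–48 hours) yeast carrying a synthetic nanobody display library were exposed to 10% biotinylated, detergent-solubilized Sf9 membrane reagent at 4 °C for 1 hour. FACS followed streptavidin microbead enrichment, using low and high (top ~1%) gates for expression (anti-HA) and reagent binding (streptavidin). Colony PCR, MiSeq 2 × 250 sequencing and CDR-length filtering followed. Labels for polyreactivity reflect the gate of origin.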

QVQLVESGGGLVQAGGSLRLSCAASGSTCAANAMGWYRQAPGKERELVAGISESVDRTYADSVKGRFTISRDNAKNTVYLQMNSLKPEDTAVYYCKVGANVYLLYFPSRGGVYDYGYWGQGTQVTVSS
polyreactivity (PSR sort gate): low polyreactivity

QVQLVESGGGLVQAGGSLRLSCAASGATFGYYGMGWYRQAHGTERELVAAISTRGDSTYYADSVMGRFTISRDNAKNPVYLQMHSLKPEDPAGYYCAKSRQSSGRVRFDYWGQGTQVTVSS
polyreactivity (PSR sort gate): low polyreactivity

QVQLVESGGGLVQAGGSLRLSCAASGSIFYRYAMGWSRPAPRKERELVAAISRSGGRTYYADSVKGRFTISRDISKKTVYLQMYSLKAEDTAVYYCADESNVGTDLGGDSWGQGTQVTVSS
polyreactivity (PSR sort gate): high polyreactivity

QVQLVESGGGLVQAGGSLRLSCAASGSISTVYAMGWYRQAPGKEMELVAAISWSGGSTYYADSVKGRFTISRDNAKNTVYLQMNSLKPEDTAVYYCAAEGYLVGSRWGPRYGDYWGQGTQVTVSS
polyreactivity (PSR sort gate): high polyreactivity

QVQLVESGGGLVQAGGSLRLSCAASGFTFTRNAMGWYRQAPGKEREFVAAITRSGGSTYYADSVKGRFTISRDNAKNTVYLQMNSLKPEDTAVYYCNKRSPSTIRFDYWGQGTQVTVSS
polyreactivity (PSR sort gate): high polyreactivity

QVQLVESGGGLVQAGGSLGLSCAASGSTFHLYAMGWYRQAPGKEREFVAAIRGRGGNTYADSVKGRFTISRDNAKNTVSLQMNSLKPEDTAVYYCAAPLLRVLRSPYSYNYWGQGTQVTVSS
polyreactivity (PSR sort gate): low polyreactivity

QVQLVESGGGLVQAGGSLRLSCAASGFTFNFYVMGWYRQAPGKERELVAAITSNGGSTYYADSVKGRFTISRDNAKNTVYLQMNSLKPEDTAVYYCAADQYPTWSYLPFDYWGQGTQVTVSS
polyreactivity (PSR sort gate): high polyreactivity

QVQLVESGGGLVHAGGSLRLSCAASGFTFRWYAMGWYRQAPGKERELVARIRGGGSTNYADSVKGRFTISRDNAKNTVYLQMNSLKPEDTAVYYCNTAYPWPPVKYDYWGQGTQVTVSS
polyreactivity (PSR sort gate): high polyreactivity

QVQLVESGGGLVQAGGSLRLSCAASGYILGRYAMGWSRQAPGNERELVAAITSGASTYYADSVKGRFTISRDNAKNTVYLQMNSLKPEDTAVYYCARVNGAKQGGEYDYWGQGTQVTVSS
polyreactivity (PSR sort gate): high polyreactivity

QVQLVDSGGGLVQAGGSLRLSCAASGRTFYFNAMGWYRQAPGKERELVAAITSSDSTYYADSVKGRFTISRDNAKNTVYLQMISLKPEDTAVYYCNADYFYWREMDYWGQGTQVTVSS
polyreactivity (PSR sort gate): low polyreactivity

QVQLGESGGGLVQAGGSLRLSCAASGITFTKYVMGWYRQAPGKERELVATIRWGASSTHYADSVKGRFTISRDNAKNTVYLQMNSLKPEDTAVYYCNADGWYGAVYWWFYGFDYWGQGTQVTVSS
polyreactivity (PSR sort gate): low polyreactivity

QVQLVESGGGLVQAGGSLRLSCAASGRIFWYYGMGWYRQAPGKERELVAAIRGGGSTYYADSVKGRFTISRDNAKNTVYLQMNSLKPEETAVYYCAVDWSRFYNRGGDYWGQGTQVTVSS
polyreactivity (PSR sort gate): high polyreactivity

QVQLVESGGGLVQAGGSLRLSCAASGRIFGRYAMGWYRQAPGKERELVASISTGGGGTYYADSVKGRFTISRDNAKNTVYLQMNSLKPEDTAVYYCAKAWRGFWTKYDYWGQGTQVTVSS
polyreactivity (PSR sort gate): low polyreactivity

QVQLVESGGGLVQAGGSLRLSCAASGIIFRYNAMGWSRQAPGKERELVATISKRGGSTRYADSVKGRFTISRDNAKNTVYLQMNSLKPEDTAVYYCAAQRPYYNGYDYWGQGTQVTVSS
polyreactivity (PSR sort gate): high polyreactivity

QVHLVESGGGIVQAGGSLRLSCAASGFTFQYNAMGWYRQAPGKERELVAAISYSGTSTYYADSVKGRFTISRDNPKNTVSLQKNSLKPEETAVYYCAVPRLSGSPSAYGYYYWGQGTQVTVSS
polyreactivity (PSR sort gate): high polyreactivity

QVQLVESGGGLVQAGGSLRLSCAASGSIFDSYVMGWYRQAPGKERELVAAITYSGGSTYADSVKGRFTISRDNAKNTVYLQMNSLKPEDTAVYYCAAASYFYLYLLEDYWGQGTQVTVSS
polyreactivity (PSR sort gate): low polyreactivity

QVQLVESGGGLVQAGGSLRLSCAASGSIFNPYTMGWYRQAPGKEREMVAAISASGGSTYYADSVKGRFTISRDNAKNTVYLQMNSLKPEDTAVYYCNVYRITRHSYNFGFDYWGQGTQVTVSS
polyreactivity (PSR sort gate): low polyreactivity

QVQLVESGGGLVQAGGSLRLSCAASGIIFGHYAMGWYRQAPGKERELVAAIRSSGGTTYYADSVKGRFTISRDNAKNTVYLQMNRLKPEDTAVYYCAKRGVHLYHDYYWGQGTQVTVSS
polyreactivity (PSR sort gate): low polyreactivity

QVQLVESGGGLVQAGCSLRLSCAASGFTFGSNEMGWYRPAPGKLRELVAAINYSGVRTYYADSVKGRFTISRDKAMNNVYLQMKSLKPEETAVDFCAKTRSKPISFDYWGQGTQVTVSS
polyreactivity (PSR sort gate): high polyreactivity

QVQLVESGGGLVQAGGSLRLSCAASGIIFAWYAMGWYRQAPGKERELVAGISQSGGRTYYADSVKGRFTISRDNAKNSVYLQMNSLKPEDTAVYYCAAQWYYSPYVSGDYWGQGTQVTVSS
polyreactivity (PSR sort gate): high polyreactivity

QVQLVESGGGLVQAGGSLRLSCAASGRISLSNAMGWYRQAPGKEREFVAAITKRSDRTYYADSVKGRFTISRDNAKNTVYLQMNSLKPEDRAVYYCAAKPLFGTRDDYWGQGTQVTVSS
polyreactivity (PSR sort gate): low polyreactivity

QVQLVESGGGLVQAGGSLRLSCAASGRNFGSNTMGWYRQAPGKERELVAAITGDDSTYADSVKGRFTISRDNAKNTVYLQMNSLKPEDTAVYYCAVVWVWDVWFLVYYWGQGTQVTVSS
polyreactivity (PSR sort gate): low polyreactivity

QVQLVQSGGGLVQAGVSLRLSCAASGLIIGVYAMGWYRQAPGKERELVAAITDGGSTYYADSVKGRFTISRDNAKNTVYLQMHSLKPEDTAVYYCNAEFRSSDYDYWGQGTQVTVSS
polyreactivity (PSR sort gate): low polyreactivity

QVHIVESGGGLVQAGGSLRLICAASGRTFNGYVMGWYRQAPGKEREFVAVINWSGGNTYYADSVKGRFTISRDNAKNTVYLQMNSLKPEDTAVYYCAARRVRSYAYDYWGQGTQVTVSS
polyreactivity (PSR sort gate): high polyreactivity

QVQLVESGGGLVQAGGSLRLSCAASGSTLDIYAMGWYRQAPGKERELVATINSTGGSTYYADSVKGRFTISRDNAKNTVYLQMNSLNPEDTAVYYCAADFGLFGPTTGYIRPYDYWGQGTQVTVSS
polyreactivity (PSR sort gate): low polyreactivity

QVQLVESGGGLVQAGGSLRLSCAASGYIFSYYAMGWYRQAPGKEREFVAAIRWRGGSTYYADSVKGRFTISRDNAKKTVYLQMNSLKPEDTAVYYCAAGPGTSYYWGQGTQVTVSS
polyreactivity (PSR sort gate): high polyreactivity

QVQLVESGGGLVQAGGSLRLSCAASGSTFVRNARGWYRQAPGKERELVAAISRSGGRTYYADSVKGRFTISRDNAKNTVYLQMNSLKPEDTAVYYCAADGKSGYDYWGQGTQVTVSS
polyreactivity (PSR sort gate): high polyreactivity

HVQLVESGGGLVQAGGSLRLSSTASGSTFGYYAMGWNRQAPGKERELVAAISGIGGSTYYADSVKGRFTISRDNAKNTVYLQMNSLKPEDTAVYFCAADLYYVTWDYNYWGQGTQVTVSS
polyreactivity (PSR sort gate): low polyreactivity

QVQLVESGGGLVQAGGSLRLSCAASGSIFVSYAMGWYRQAPGKERELVAVISYSGVSTYYADSVKGRFTISRDNAKNTVYLQMNSLKPEDTAVYYCATRQYGTRHILKYNYWGQGTQVTVSS
polyreactivity (PSR sort gate): low polyreactivity

QVQLVESGGGLVQAGGSLRLSCAASGIFFHYAMGWYKQAPGKERELVAAISYSGGRTYYADSVKGRFTISRDNAKNTVYLQMNSLKPEDTAVYYCAARYYIGYGHRTYGYDYWGQGTQVTVSS
polyreactivity (PSR sort gate): high polyreactivity

QDQLVESGGGLVQAGGSLRLSCAASGNIFDYYAMGWYRQAPGKERELVATITWSSGRTYYADSVKGRFTISRDNAKNTVYLQMNSLKTEDTAVYYCNTRSYTRYDYWGQGTQVTVSS
polyreactivity (PSR sort gate): low polyreactivity

QVQLVESGGGLVQAGGSLRLTCAASGIIFGKYTMGWYRPAPGKERELVADISKRGGSTYYADSVKGRFTISRDHAKNTVYLQMNSLKPEDTAVYNCAAERISSYDYWGQGTQVTVSS
polyreactivity (PSR sort gate): high polyreactivity

QVQLVESGGGLVQAGGSLRLSCAASGRIFYGYARGWYRQAPGKDRELVAAIRWYGGNTYYADSVKGRFTISRDNAKNTVYLQMNSLKPEDTAVYYCNARTEYASSRYYYWGQGTQVTVSS
polyreactivity (PSR sort gate): high polyreactivity

QVQLVESGGGLVQAGGSLRLSCAASGSIFFGYGMGWYRQAPGKERELVATITTSGGTYYADAVKGRFTISRDNAKNTVYLQMNSLKPEDTAVYYCAATAAALDGNTIMYYWGQGTQVTVSS
polyreactivity (PSR sort gate): low polyreactivity

QVQLVESGGGLVQAGGSLRLSCAASGRIFRVNAMGWYRQAPGKERELVAAINFSGTSTYYADSVKGRFTISRDNAKNTVYLQMNSLKPEDTAVYYCNTASYVSWYVHYYYWGQGTQVTVSS
polyreactivity (PSR sort gate): low polyreactivity

QVQLVESGGGLVQAGGSLRLSCAATGYTLYYNAMGWYIQAPGKERELVAAITSGGSTSYADSVKGRFTISRDNAKNTVYLQMNRLIPEDTAVYYCAAVFYRRFDYWGQGTQVTVSS
polyreactivity (PSR sort gate): low polyreactivity

QVQLVESGGGLVQAGVSHRLSCAASGSIYYYYAMGWYRQAPGKESELVAGITTSGGSTYYAESVKVRFTISRDNAKNTVYLQMISLKPEDNAVYYCAAYDYISSTYFLDDYWGQGTQVTVSS
polyreactivity (PSR sort gate): low polyreactivity

QVQLVESGGGLVQAGGSLRLSCAASGYTLSFNAMGWYRQAPGKARELVAGITYSGGSTYYSDSVKGRFTISRDNAKNTVYLQMTSLKPEDTAVYYCNKASGVYYGHLDYWGQGTQVTVSS
polyreactivity (PSR sort gate): low polyreactivity

QVQLQERGGGLVQAGGSLRLSCAASRIIYADGFMGLYRQAPGKEREFVATITGGGTSNYADSVKGLFTISRDNAKNTVYLQMNSQKPEDTAVYYCAVYFAWTIGFTYWGQGTQVTVSS
polyreactivity (PSR sort gate): high polyreactivity

QVQLVESGGGLVQAGGSLRLSCAASGLIFGRNAMGWYRQAPGKERELVAAITSGGSTYYADSVKGRFTISRDNAKNTVYLQMNSLKPEDTAVYYCFVDYYPYDYWGQGTQVTVSS
polyreactivity (PSR sort gate): low polyreactivity

QVQLVESGGGLVQAGGSLRLICAASGFIFGDYTMGWYRPAPGKEREVVAAITWYGDSTYYADSVKGRFTISRDNAKNTVYLQMNTLKTEDTAVYYCNAVNDWYYAYYGVTSFRSYDYWGQGSQVTVSS
polyreactivity (PSR sort gate): low polyreactivity

QVQLVESGGGIVQAGGSLRLSCAASGSTFFSYAMGLYRQAPGKERELVAGIDWNGGDTNYADSVKGRFTISRDNAKNTVYLQMNSLKPEETAVYYCATDYSFPGPFRRRERFDYWGQGTQVTVSS
polyreactivity (PSR sort gate): low polyreactivity

QVQLVESGGGLVQAAGSLRLICAASGLTFGANDMGWSRQAPGTERELVAAIDWSGGSTFFADSVKGRFTISRDNAKNTVYLQMNTLKPEDTAVYYCAALGFGYPYPEYDSWGQGTQVTVSA
polyreactivity (PSR sort gate): low polyreactivity
